Data from the DeepSol protein solubility set.

Assay: soluble on expression in E. coli; label from the status in PepcDB or PDB records

**Q.** For “GMSDTVLTGLLDTVWQQFGRGTKDRHHPARHPTLATIGTDGPDLRTLVLRAASHAEATLEFHTDAASPKVAHIRRDARVAIHIWIPKASLQVRAKAIAKILPGDPNLFAQLPEAARMNYQGPVPGTPLPAEPDATPNRFTRLICHLSEIDVLHLTTPHQRAVYTAPDWRGIWVSP”, which “soluble on expression in E. coli” value is on record?
**A.** soluble

**Q.** With “GMSNKKLIINADDFGYTPAVTQGIIEAHKRGVVTSTTALPTSPYFLEAMESARISAPTLAIGVHLTLTLNQAKPILPREMVPSLVDEAGYFWHQSIFEEKVNLEEVYNEWDAQIISFMKSGRRPDHIDSHHNVHGKNKKLLGVALALARKYQLPLRNASRSIETKDYLELYQDVRTPDEMLYQFYDKAISTETILQLLDMVVCSEGEVFEINCHPAFIDTILQNQSGYCMPRIREVEILTSQEVKEAIEERGILLANYESLAM” as the sequence, how does the “soluble on expression in E. coli” value read?
**A.** soluble

**Q.** Which “soluble on expression in E. coli” value does the source give for “GMSQRIGVIDMGTNTFHLLITDIVNDRPHTLVNEKSAVGLGKGGITKGFITEEAMDRALDTLKKFRVILDEHAVVHVIATGTSAVRSGSNKQVLIDRIKKEVNIDVEVIDGAREAELIFRGVQQAVPMEDHISLAMDIGGGSVEFIIGNKNEILWKQSFEIGGQRLIDRFHVHDPMREDDRVMMHNYFDEVLVPLEKAINTWRPTQLIGCSGTFDTLAEMNIQHHREKIALEKQTSYLLSLPDFNRLRKQLVASTRRERLAIAGMIELRADMVVVAICLIEHVLKLVSTNAITVSTYSLKEGVLYTMLDGVKVGS” here?
**A.** soluble

**Q.** With “GMTKPKEPTALDLPMADPLPDETQKYFEICQEKLGMVPNVLKAYAFNVEKLNAFTAMYNDLMLGESQLSKLEREMIAVVVSSINKCFYCLVAHGAAVRQLSGDPQLGEMLVMNYRVAPLDARQRVMLDFAAKMTRASAEIEEADREVLRSHGFNDRDIWDIANVTGFFNMTNRVASATAMMPNAEYHGQFR” as the sequence, how does the “soluble on expression in E. coli” value read?
**A.** soluble

**Q.** Which “soluble on expression in E. coli” value does the source give for “GMTTEVKQSPRERLLEAAAALTYRDGVGIGVEALCKAAGVSKRSMYQLFESKDELLAASLKERSAAFVAKALPPADDGRSPRERILYVFERVESQAGAPDFQGCRYLAVQIELKDQAHPASRVAYQIKADLMAFFRSEAERGGASDPDLLARQLILVFDGASARAGIGADNLTGLIVPTLTTLLDAADMH” here?
**A.** soluble

**Q.** Which “soluble on expression in E. coli” value does the source give for “GMTTKDISRPVCILGLGLIGGSLLRDLHAANHSVFGYNRSRSGAKSAVDEGFDVSADLEATLQRAAAEDALIVLAVPMTAIDSLLDAVHTHAPNNGFTDVVSVKTAVYDAVKARNMQHRYVGSHPMAGTANSGWSASMDGLFKRAVWVVTFDQLFDGTDINSTWISIWKDVVQMALAVGAEVVPSRVGPHDAAAARVSHLTHILAETLAIVGDNGGALSLSLAAGSYRDSTRVAGTDPGLVRAMCESNAGPLVKALDEALAILHEAREGLTAEQPNIEQLADNGYRSRIRYEARSGQRRAKESVSPTITSSRPVLRLHPGTPNWEKQLIHAETLGARIEVF” here?
**A.** soluble

**Q.** With “GMTTTQPEAKDRISSLPVPDATQVPEGVRKLWAKAEANIGFVPNVFRAQAVNGEQFLAWWNYFNLLLNKEGYLTNAERELVAVVVSGVNRCLYCAVSHGAALREFLGDPQKADAVAVNWRHADLTEREQALAAYAEKLTRHPAEVTAADLEPLRAVGLDDHQIMELVQVIGMFNLTNRVSSALGFVPNPEYYRQAR” as the sequence, how does the “soluble on expression in E. coli” value read?
**A.** soluble

**Q.** Which “soluble on expression in E. coli” value does the source give for “GMYANKVKKIAAVHDLSGMGRVSLTVVIPILSSMGFQVCPLPTAVLSNHTQYPGFSFLDLTDEMPKIIAEWKKLEVQFDAIYTGYLGSPRQIQIVSDFIKDFRQPDSLIVADPVLGDNGRLYTNFDMEMVKEMRHLITKADVITPNLTELFYLLDEPYKADSTDEELKEYLRLLSDKGPQVVIITSVPVHDEPHKTSVYAYNRQGNRYWKVTCPYLPAHYPGTGDTFTSVITGSLMQGDSLPMALDRATQFILQGIRATFGYEYDNREGILLEKVLHNLDMPIQMASYELI” here?
**A.** soluble

**Q.** With “GNDEIGELALAFNNLSKRVQEAQANTESEKRRLDSVITHMSDGIIATDRRGRIRIVNDMALKMLGMAKEDIIGYYMLSVLSLEDEFKLEEIQENNDSFLLDLNEEEGLIARVNFSTIVQETGFVTGYIAVLHD” as the sequence, how does the “soluble on expression in E. coli” value read?
**A.** not soluble

**Q.** Which “soluble on expression in E. coli” value does the source give for “GNHHHHHMMLIKKIEELKNSEIKDIIDKRIQEFKSFKNKSNEEWFKELCFCILTANFTAEGGIRIQKEIGDGFLTLPREELEEKLKNLGHRFYRKRAEYIVLARRFKNIKDIVESFENEKVAREFLVRNIKGIGYKEASHFLRNVGYDDVAIIDRHILRELYENNYIDEIPKTLSRRKYLEIENILRDIGEEVNLKLSELDLYIWYLRTGKVLK” here?
**A.** soluble
